Assay results from publication PMC9170038.

Molecular target: MS2 coat protein, dlFG mutant (Escherichia phage MS2, UniProt P03612, del68-81insG)
Assay: 4 mM Mg2+; no ligand; RNA-MaP array; 100 mM Tris-HCl pH 7.5, 80 mM KCl, 4 mM MgCl2, 0.1 mg/mL BSA, 1 mM DTT, 0.01 mg/mL yeast tRNA, 0.01% Tween-20; protein 1.5 nM to 3 uM; 37 C (Table S3)
Conditions: chain copies: 2; label: tethered by stalled RNA polymerase

Row | Binder | Kd [µM]
1 | Eterna 7708077 (Same State - FMN A) (ssRNA) RNA: UUUUACGAGUGAUGUUCGUAAUGUAAUAGUUAGGAUAUCGUUUUUUCGAGAAGGAACUUCGAAGUGAUACGAAAGUAUCGCUUCG | > 3
2 | Eterna 7753129 (Same State - Arginine B) (ssRNA) RNA: GGGUUGAACUGAAGGAGCGAGAAAUAGAAAGUAAGAAGAUAAGCUAGUGAUGUUAGAAAUUCUCAGGUAGGUCGCAGUAAGAAUU | > 3
3 | Eterna 7682639 (Same State - Theophylline A) (ssRNA) RNA: GAAGGUCAAAGACCUUCGUGCACAUCUGAUACCAGUCGCGAAAGCGACCCUUGGCAGCAGGGCAGUGAUGUUGCCAGUGCACAAA | > 3
4 | Eterna 7690461 (Exclusion - Theophylline A) (ssRNA) RNA: UAAUUUAUGUCUUUAAUAUAAUAAUCAGAUACCAGUGAUUUAUGACACCCUUGGCAGCUGUAUAGAGUGAUGUUCUUAUACAUAA | > 3
5 | Eterna 7691153 (Same State - Arginine B) (ssRNA) RNA: AAUGCAUAGUGAAGGAGCGCGAUUUGCAGUGAUGUUGCAAAUUUAAACAAUCUUAUCUUUUCGCAGGUAGGUCGCACUAUGCAUA | > 3
6 | Eterna 7687680 (Same State - Theophylline A) (ssRNA) RNA: AUUGAUAUAUAUAUUUGAUUUUUAUGUGAUACCAGACAAGGCAUAGUCCCUUGGCAGCACUUUAUAUUUACGAGUGAUGUUCGUA | > 3
7 | Eterna 7692300 (Exclusion - FMN B) (ssRNA) RNA: UGGGCUGCCUGAGGAUAUAGAGACGAGUGAUGUUCGUGGAUAAGAGCCAGUGAUGUUGGGUUAUUUCUAGAAGGCGGGCGAACUU | > 3
8 | Eterna 7726887 (Same State - Arginine A) (ssRNA) RNA: AAUACCUGAGUGAUGUUCAGGGAAUCAGAAGGAGCGUCAAUUAUGACAGGUAGGUCGCUGAAGACAUGUGUGUAUACACAUGUCC | > 3
9 | Eterna 7690487 (Same State - Theophylline B) (ssRNA) RNA: UGUCAUUGGUCUGAUACCAGUUAGACCGAUAGGUCAAAACUGGAGUGAUGUUCCCAAAAUAACCCUUGGCAGCAGACCGAUGACU | > 3
10 | Eterna 7765403 (Exclusion - FMN A) (ssRNA) RNA: AGUGAUGUAUGGCGGUUUGUCACUUAAAAUCAGGAUAUAUAAACAAAUAGAAGGGAUGGCGGAGUGAUGUUCCGCCGGCCGCCAU | > 3
11 | Eterna 7690543 (Exclusion - Theophylline B) (ssRNA) RNA: AUUUAAUUAACUGAUACCAGACUUUAUGUAUUUAUUAAAACUAGUGAUGUUAGUUUAUCUGUCCCUUGGCAGCAGUUUCUACUUA | > 3
12 | Eterna 7716236 (Same State - Tryptophan B) (ssRNA) RNA: GCGCGGCAGGCGGCCGCCACUCUGACGAGCCACAGUGAUGUUGUGGUCGGAGAAACGUCUUCAUAGAGGACCGGGUUUGUUGUUC | > 3
13 | Eterna 7729660 (Same State - Arginine B) (ssRNA) RNA: ACGAAGGAUGGAAGGAGCGCUCGUCAGUCCUGCGAGUGAUGUUCGUGGGUAAAUAGUCGCGAGCAGGUAGGUCGCCAUCUUGAGC | > 3
14 | Eterna 7652494 (Same State - Tryptophan B) (ssRNA) RNA: AGUAGACACGCGGCCGCCACUUGAGGAUCACCCAGGUGGUGUGUACUUGAAAACAAGUGCACAUCAAGGACCGGGCGUGUCUACA | 0.0127
15 | Eterna 7710839 (Same State - Theophylline A) (ssRNA) RNA: UAAUAAAUAAAUCCAAGGUGAAGGUCAGAUACCAGCCAGAUAACUGGCCCUUGGCAGCUGAAUAAGCUUGAGGAUCACCCAAGUA | 0.0361
16 | Eterna 7720377 (Same State - Arginine B) (ssRNA) RNA: GCCUAGCAGGGAAGGAGCGGCAUAAGCAUAGAUAAUAUGCAGUUAGUGAUGUUAAUACUAUGCCAGGUAGGUCGCCCUGCUAGGC | > 3
17 | Eterna 7712973 (Exclusion - Theophylline A) (ssRNA) RNA: AGACCUCAGUGAUGUUGAGGUAACACUGAUACCAGCGACUUAAUUCGCCCUUGGCAGCAGUCCACCGAGGUAUCUGAUUAGGUCA | > 3
